Source: publication PMC8464830

Experiments:
Assay in all cases: SPR
[1] = biological target: HIV-1 MA protein from clade B (LAI), full-length (HIV-1 clade B (LAI))
[2] = biological target: HIV-1 MA protein from clade B (NL4-3), full-length (HIV-1 clade B (NL4-3))
[3] = biological target: HIV-1 MA protein from clade D (94UG114.1), full-length (HIV-1 clade D (94UG114.1))

human Calmodulin-1 (from UniProt P0DP23 1-149) (natural protein)
Kd [1]: 49 µM
Kd [2]: 27.6 µM
Kd [3]: 33.3 µM
